B1: Hab013VL2VH2a-hFc (scFv, part only; not given: scFv linker and human IgG1 Fc, V domains shown, not shown: another chain or arm of the molecule; a dimerising Fc or GST; small tags and cut ends)
VL: EIVLTQSPATLSLSPGERATLSCRASKSVSTSGFSYMHWYQQKPGQPPRLLIYLASNLESGIPARFSGSGSGTDFTLTISSLEPEDFAVYYCQHSRELPFTFGQGTKLEIK
VH: EVQLVQSGAEVKKPGSSVKVSCKASGYAFSNYWINWVRQAPGQGLEWMGQINPGDGDTIYNSKFKGRVTITADKSTSTAYMELSSLRSEDTAVYYCEREGRNYGDFAYWGQGTTVTVSS
B2: Hab009VL3aVH1-hFc (scFv, part only; not given: VL-VH linker and human IgG1 Fc, V domains shown, not shown: another chain or arm of the molecule; a dimerising Fc or GST; small tags and cut ends)
VL: DIVMTQSPLSLPVTPGEPASISCRASQTISDYLHWYLQKSHQSPQLLIKYASQSISGVPDRFSGSGSGTDFTLKISRVEAEDVGVYYCQQGHSFPLTFGQGTKLEIK
VH: EVQLVQSGAEVKKPGASVKVSCKASGYTFTSYWMHWVRQAPGQRLEWMGTIYPGNSDTRYNQKFKDRVTITADTSASTAYMELSSLRSEDTAVYYCTRSYDYGDLDYWGQGTTVTVSS

Molecular target: DLL3 endogenously expressed on NCI-H82 cells (UniProt Q9NYJ7)
Test: FACS on NCI-H82 cells; antibody 4 nM

Chain of DLL3 endogenously expressed on NCI-H82 cells (Q9NYJ7 27-618): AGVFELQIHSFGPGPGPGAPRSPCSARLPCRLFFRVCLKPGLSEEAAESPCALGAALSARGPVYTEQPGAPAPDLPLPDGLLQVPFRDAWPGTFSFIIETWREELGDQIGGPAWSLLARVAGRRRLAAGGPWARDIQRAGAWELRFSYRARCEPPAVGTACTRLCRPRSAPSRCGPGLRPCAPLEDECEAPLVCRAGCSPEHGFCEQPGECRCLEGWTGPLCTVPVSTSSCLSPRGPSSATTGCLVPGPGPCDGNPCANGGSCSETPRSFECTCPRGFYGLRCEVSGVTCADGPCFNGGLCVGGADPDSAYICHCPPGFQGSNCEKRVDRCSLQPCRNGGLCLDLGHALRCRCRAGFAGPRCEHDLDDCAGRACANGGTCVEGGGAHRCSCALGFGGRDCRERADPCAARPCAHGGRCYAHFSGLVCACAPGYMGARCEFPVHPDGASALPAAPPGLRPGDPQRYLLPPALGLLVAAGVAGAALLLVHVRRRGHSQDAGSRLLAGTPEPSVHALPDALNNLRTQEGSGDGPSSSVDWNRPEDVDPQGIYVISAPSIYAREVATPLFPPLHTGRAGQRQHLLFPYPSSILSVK

| Binder | MFI |
| --- | --- |
| B1 | 1030 |
| B2 | 738 |

Molecular target: mouse DLL3 on CHO-K1-mDLL3 cells (mouse) (UniProt O88516)
Test: FACS, CHO-K1-mDLL3 cells, 0.0064 nM antibody

Chain of mouse DLL3 on CHO-K1-mDLL3 cells (mouse) (O88516 other isoform, or with tags, fused parts or gaps limits assumed): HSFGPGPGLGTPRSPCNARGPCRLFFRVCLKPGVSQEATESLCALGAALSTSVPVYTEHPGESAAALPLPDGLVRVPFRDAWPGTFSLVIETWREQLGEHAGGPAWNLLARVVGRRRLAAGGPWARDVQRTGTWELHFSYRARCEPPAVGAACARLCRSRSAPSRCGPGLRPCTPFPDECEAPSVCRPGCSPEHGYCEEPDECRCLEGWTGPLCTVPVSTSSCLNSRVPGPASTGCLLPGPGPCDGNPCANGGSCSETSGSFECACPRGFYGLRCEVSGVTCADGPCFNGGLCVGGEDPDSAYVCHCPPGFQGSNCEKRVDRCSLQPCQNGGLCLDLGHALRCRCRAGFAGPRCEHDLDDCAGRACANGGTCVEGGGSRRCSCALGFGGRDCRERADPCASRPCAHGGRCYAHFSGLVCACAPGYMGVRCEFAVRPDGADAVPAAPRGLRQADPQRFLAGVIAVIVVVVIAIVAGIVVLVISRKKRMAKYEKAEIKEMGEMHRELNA

| Binder | MFI [MFI] |
| --- | --- |
| B1 | 125 |
| B2 | 269 |

Molecular target: DLL3 endogenously expressed on NCI-H82 cells (UniProt Q9NYJ7)
Test: FACS on NCI-H82 cells; antibody 100 nM

| Binder | MFI |
| --- | --- |
| B1 | 1520 |
| B2 | 872 |

Molecular target: human DLL1 protein (Acro, Cat. No. DL1-H52H8) (human) (UniProt O00548)
Test: ELISA, coated hDLL1; maximum over 0.1, 1, 10, 100 nM antibody

Chain of human DLL1 protein (Acro, Cat. No. DL1-H52H8) (human) (O00548 18-540 limits assumed): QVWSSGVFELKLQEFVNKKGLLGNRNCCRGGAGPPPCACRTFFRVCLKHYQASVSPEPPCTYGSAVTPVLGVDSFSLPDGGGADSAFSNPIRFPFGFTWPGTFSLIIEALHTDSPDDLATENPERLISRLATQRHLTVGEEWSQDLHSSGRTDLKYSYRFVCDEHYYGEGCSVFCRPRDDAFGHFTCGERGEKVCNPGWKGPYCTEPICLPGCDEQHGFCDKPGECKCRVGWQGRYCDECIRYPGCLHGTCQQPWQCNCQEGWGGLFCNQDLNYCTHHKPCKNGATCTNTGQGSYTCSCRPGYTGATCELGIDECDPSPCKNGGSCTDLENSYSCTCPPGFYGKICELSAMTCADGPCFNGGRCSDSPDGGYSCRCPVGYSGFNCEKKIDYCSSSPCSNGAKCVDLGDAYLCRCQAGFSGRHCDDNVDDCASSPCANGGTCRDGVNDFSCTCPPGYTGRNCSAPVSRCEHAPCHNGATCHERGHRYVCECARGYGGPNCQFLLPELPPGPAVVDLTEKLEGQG

| Binder | Emax of OD450 nm binding value [OD450 nm] |
| --- | --- |
| B1 | 0.05 |
| B2 | 0.06 |

Molecular target: monkey DLL3 on CHO-K1-cyno DLL3 cells (cynomolgus monkey)
Test: FACS, CHO-K1-cyno DLL3 cells, 20 nM antibody

Chain of monkey DLL3 on CHO-K1-cyno DLL3 cells (cynomolgus monkey) (chain, as listed by the source limits assumed): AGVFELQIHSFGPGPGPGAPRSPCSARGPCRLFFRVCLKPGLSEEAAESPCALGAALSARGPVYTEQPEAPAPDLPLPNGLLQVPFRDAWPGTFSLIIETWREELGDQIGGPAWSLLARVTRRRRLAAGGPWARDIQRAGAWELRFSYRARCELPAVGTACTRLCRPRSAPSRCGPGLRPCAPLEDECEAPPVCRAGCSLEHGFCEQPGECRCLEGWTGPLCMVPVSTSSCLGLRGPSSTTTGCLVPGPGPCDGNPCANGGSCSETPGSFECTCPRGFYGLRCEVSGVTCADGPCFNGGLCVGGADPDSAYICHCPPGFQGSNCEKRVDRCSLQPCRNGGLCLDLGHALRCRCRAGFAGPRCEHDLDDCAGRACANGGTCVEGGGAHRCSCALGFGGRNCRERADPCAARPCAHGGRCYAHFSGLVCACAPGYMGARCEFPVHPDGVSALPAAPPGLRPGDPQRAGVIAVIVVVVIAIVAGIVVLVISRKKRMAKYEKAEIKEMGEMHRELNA

| Binder | MFI [MFI] |
| --- | --- |
| B2 | 30000 |

Molecular target: mouse DLL3 on CHO-K1-mDLL3 cells (mouse) (UniProt O88516)
Test: FACS, CHO-K1-mDLL3 cells, 0.8 nM antibody

| Binder | MFI [MFI] |
| --- | --- |
| B1 | 463 |
| B2 | 413 |

Molecular target: human DLL3 protein expressed on CHO-K1 recombinant cells (human DLL3 extracellular segment fused to EpCAM transmembrane and intracellular regions) (human) (UniProt Q9NYJ7)
Test: FACS, CHO-K1 hDLL3 cells, 4 nM antibody

Chain of human DLL3 protein expressed on CHO-K1 recombinant cells (human DLL3 extracellular segment fused to EpCAM transmembrane and intracellular regions) (human) (Q9NYJ7 other isoform, or with tags, fused parts or gaps limits assumed): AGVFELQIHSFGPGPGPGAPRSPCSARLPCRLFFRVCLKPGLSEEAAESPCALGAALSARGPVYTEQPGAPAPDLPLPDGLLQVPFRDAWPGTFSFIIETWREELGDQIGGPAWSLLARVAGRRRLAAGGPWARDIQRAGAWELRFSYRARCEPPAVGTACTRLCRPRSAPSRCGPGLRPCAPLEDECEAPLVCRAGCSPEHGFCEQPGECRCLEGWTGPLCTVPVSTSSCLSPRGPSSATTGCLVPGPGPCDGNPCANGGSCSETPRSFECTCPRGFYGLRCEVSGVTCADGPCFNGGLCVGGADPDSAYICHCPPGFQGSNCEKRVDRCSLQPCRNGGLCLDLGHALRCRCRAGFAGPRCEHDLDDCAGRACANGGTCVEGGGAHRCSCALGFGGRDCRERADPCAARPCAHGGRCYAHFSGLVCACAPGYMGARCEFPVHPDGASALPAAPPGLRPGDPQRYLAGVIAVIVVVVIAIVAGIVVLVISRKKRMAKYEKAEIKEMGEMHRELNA

| Binder | MFI [MFI] |
| --- | --- |
| B1 | 14900 |

Molecular target: mouse DLL3 on CHO-K1-mDLL3 cells (mouse) (UniProt O88516)
Test: FACS, CHO-K1-mDLL3 cells, 0.16 nM antibody

| Binder | MFI [MFI] |
| --- | --- |
| B1 | 313 |
| B2 | 345 |

Molecular target: human DLL3 protein expressed on CHO-K1 recombinant cells (human DLL3 extracellular segment fused to EpCAM transmembrane and intracellular regions) (human) (UniProt Q9NYJ7)
Test: FACS, CHO-K1 hDLL3 cells, 100 nM antibody

| Binder | MFI [MFI] |
| --- | --- |
| B1 | 19500 |

Molecular target: DLL3 endogenously expressed on NCI-H82 cells (UniProt Q9NYJ7)
Test: FACS on NCI-H82 cells; antibody 0.032 nM

| Binder | MFI |
| --- | --- |
| B1 | 356 |
| B2 | 371 |

Molecular target: mouse DLL3 on CHO-K1-mDLL3 cells (mouse) (UniProt O88516)
Test: FACS, CHO-K1-mDLL3 cells, 100 nM antibody

| Binder | MFI [MFI] |
| --- | --- |
| B1 | 764 |
| B2 | 553 |

Molecular target: monkey DLL3 on CHO-K1-cyno DLL3 cells (cynomolgus monkey)
Test: FACS, CHO-K1-cyno DLL3 cells, 0.16 nM antibody

| Binder | MFI [MFI] |
| --- | --- |
| B2 | 10600 |

Molecular target: monkey DLL3 on CHO-K1-cyno DLL3 cells (cynomolgus monkey)
Test: FACS, CHO-K1-cyno DLL3 cells, 0.0064 nM antibody

| Binder | MFI [MFI] |
| --- | --- |
| B2 | 3760 |

Molecular target: human DLL3 protein expressed on CHO-K1 recombinant cells (human DLL3 extracellular segment fused to EpCAM transmembrane and intracellular regions) (human) (UniProt Q9NYJ7)
Test: FACS, CHO-K1 hDLL3 cells, 0.00128 nM antibody

| Binder | MFI [MFI] |
| --- | --- |
| B1 | 164 |

Molecular target: monkey DLL3 on CHO-K1-cyno DLL3 cells (cynomolgus monkey)
Test: FACS, CHO-K1-cyno DLL3 cells, 0.8 nM antibody

| Binder | MFI [MFI] |
| --- | --- |
| B2 | 24700 |

Molecular target: mouse DLL3 on CHO-K1-mDLL3 cells (mouse) (UniProt O88516)
Test: FACS, CHO-K1-mDLL3 cells, 0.00128 nM antibody

| Binder | MFI [MFI] |
| --- | --- |
| B1 | 113 |
| B2 | 190 |

Molecular target: DLL3 endogenously expressed on NCI-H82 cells (UniProt Q9NYJ7)
Test: FACS on NCI-H82 cells; antibody 0.0064 nM

| Binder | MFI |
| --- | --- |
| B1 | 185 |
| B2 | 179 |

Molecular target: DLL3 endogenously expressed on NCI-H82 cells (UniProt Q9NYJ7)
Test: FACS on NCI-H82 cells; antibody 0.8 nM

| Binder | MFI |
| --- | --- |
| B1 | 831 |
| B2 | 709 |

Molecular target: human DLL3 protein expressed on CHO-K1 recombinant cells (human DLL3 extracellular segment fused to EpCAM transmembrane and intracellular regions) (human) (UniProt Q9NYJ7)
Test: FACS, CHO-K1 hDLL3 cells, 0.0064 nM antibody

| Binder | MFI [MFI] |
| --- | --- |
| B1 | 270 |

Molecular target: mouse DLL3 on CHO-K1-mDLL3 cells (mouse) (UniProt O88516)
Test: FACS, CHO-K1-mDLL3 cells, 20 nM antibody

| Binder | MFI [MFI] |
| --- | --- |
| B1 | 655 |
| B2 | 491 |

Molecular target: human DLL3 protein (extracellular segment, His tag) (human) (UniProt Q9NYJ7)
Test: SPR (Biacore 8K), antibody captured on Protein A chip, DLL3 antigen in solution, 1:1 Langmuir fit

Chain of human DLL3 protein (extracellular segment, His tag) (human) (Q9NYJ7 27-492): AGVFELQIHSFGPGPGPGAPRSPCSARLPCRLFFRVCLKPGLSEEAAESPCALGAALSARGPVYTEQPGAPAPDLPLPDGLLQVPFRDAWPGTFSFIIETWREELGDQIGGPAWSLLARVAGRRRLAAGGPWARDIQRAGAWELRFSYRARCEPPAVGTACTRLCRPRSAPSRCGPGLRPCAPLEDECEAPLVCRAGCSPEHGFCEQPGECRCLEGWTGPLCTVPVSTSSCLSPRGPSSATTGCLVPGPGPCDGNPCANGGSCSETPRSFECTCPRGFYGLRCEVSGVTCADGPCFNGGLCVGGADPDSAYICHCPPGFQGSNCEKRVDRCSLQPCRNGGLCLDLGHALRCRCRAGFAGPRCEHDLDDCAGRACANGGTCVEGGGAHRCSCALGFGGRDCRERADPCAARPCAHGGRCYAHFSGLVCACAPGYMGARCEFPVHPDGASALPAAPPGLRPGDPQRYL

| Binder | Kd [pM] | koff [s⁻¹] | kon [M⁻¹ s⁻¹] |
| --- | --- | --- | --- |
| B1 | 112 | 0.000371 | 3.32e+06 |
| B2 | 304 | 0.00175 | 5.76e+06 |

Molecular target: human DLL3 protein expressed on CHO-K1 recombinant cells (human DLL3 extracellular segment fused to EpCAM transmembrane and intracellular regions) (human) (UniProt Q9NYJ7)
Test: FACS, CHO-K1 hDLL3 cells, 20 nM antibody

| Binder | MFI [MFI] |
| --- | --- |
| B1 | 16300 |

Molecular target: DLL3 endogenously expressed on NCI-H82 cells (UniProt Q9NYJ7)
Test: FACS on NCI-H82 cells; antibody 20 nM

| Binder | MFI |
| --- | --- |
| B1 | 1170 |
| B2 | 796 |

Molecular target: human DLL4 protein (Acro, Cat. No. DL4-H5227) (human) (UniProt Q9NR61)
Test: ELISA, coated hDLL4; maximum over 0.1, 1, 10, 100 nM antibody

Chain of human DLL4 protein (Acro, Cat. No. DL4-H5227) (human) (Q9NR61 27-524 limits assumed): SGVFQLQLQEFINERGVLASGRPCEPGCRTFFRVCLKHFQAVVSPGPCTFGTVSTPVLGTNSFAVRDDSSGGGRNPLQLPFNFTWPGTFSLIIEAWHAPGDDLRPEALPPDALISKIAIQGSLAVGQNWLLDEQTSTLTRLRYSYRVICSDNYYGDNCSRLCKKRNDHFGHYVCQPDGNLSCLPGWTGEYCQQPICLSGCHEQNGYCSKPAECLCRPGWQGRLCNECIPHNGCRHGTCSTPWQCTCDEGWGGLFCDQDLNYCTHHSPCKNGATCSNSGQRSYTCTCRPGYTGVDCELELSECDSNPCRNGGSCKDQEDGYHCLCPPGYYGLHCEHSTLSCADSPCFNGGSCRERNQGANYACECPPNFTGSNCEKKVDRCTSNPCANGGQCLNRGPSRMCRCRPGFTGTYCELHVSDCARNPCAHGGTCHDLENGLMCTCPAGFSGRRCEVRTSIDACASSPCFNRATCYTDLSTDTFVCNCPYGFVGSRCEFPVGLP

| Binder | Emax of OD450 nm binding value [OD450 nm] |
| --- | --- |
| B1 | 0.05 |
| B2 | 0.06 |

Molecular target: monkey DLL3 on CHO-K1-cyno DLL3 cells (cynomolgus monkey)
Test: FACS, CHO-K1-cyno DLL3 cells, 0.032 nM antibody

| Binder | MFI [MFI] |
| --- | --- |
| B2 | 4020 |

Molecular target: monkey DLL3 on CHO-K1-cyno DLL3 cells (cynomolgus monkey)
Test: FACS, CHO-K1-cyno DLL3 cells, 0.00128 nM antibody

| Binder | MFI [MFI] |
| --- | --- |
| B2 | 1450 |

Molecular target: mouse DLL3 on CHO-K1-mDLL3 cells (mouse) (UniProt O88516)
Test: FACS, CHO-K1-mDLL3 cells, 0.032 nM antibody

| Binder | MFI [MFI] |
| --- | --- |
| B1 | 179 |
| B2 | 287 |

Molecular target: human delta-like ligand 3 (DLL3) on SHP77 cells (human) (UniProt Q9NYJ7)
Test: FACS on SHP77 cells

Chain of human delta-like ligand 3 (DLL3) on SHP77 cells (human) (Q9NYJ7 27-618, stated change not applied): as the sequence (Q9NYJ7 27-618) above

| Binder | MFI at 0.00128 nM [MFI] | MFI at 0.0064 nM [MFI] | MFI at 0.032 nM [MFI] | MFI at 0.16 nM [MFI] | MFI at 0.8 nM [MFI] | MFI at 4 nM [MFI] | MFI at 20 nM [MFI] | MFI at 100 nM [MFI] |
| --- | --- | --- | --- | --- | --- | --- | --- | --- |
| B1 | 116 | 131 | 183 | 323 | 541 | 719 | 876 | 1140 |

Molecular target: DLL3 endogenously expressed on NCI-H82 cells (UniProt Q9NYJ7)
Test: FACS on NCI-H82 cells; antibody 0.16 nM

| Binder | MFI |
| --- | --- |
| B1 | 670 |
| B2 | 669 |

Molecular target: human DLL3 protein expressed on CHO-K1 recombinant cells (human DLL3 extracellular segment fused to EpCAM transmembrane and intracellular regions) (human) (UniProt Q9NYJ7)
Test: FACS, CHO-K1 hDLL3 cells, 0.032 nM antibody

| Binder | MFI [MFI] |
| --- | --- |
| B1 | 789 |

Molecular target: monkey DLL3 on CHO-K1-cyno DLL3 cells (cynomolgus monkey)
Test: FACS, CHO-K1-cyno DLL3 cells, 4 nM antibody

| Binder | MFI [MFI] |
| --- | --- |
| B2 | 30000 |

Molecular target: human DLL3 protein expressed on CHO-K1 recombinant cells (human DLL3 extracellular segment fused to EpCAM transmembrane and intracellular regions) (human) (UniProt Q9NYJ7)
Test: FACS, CHO-K1 hDLL3 cells, 0.8 nM antibody

| Binder | MFI [MFI] |
| --- | --- |
| B1 | 11200 |

Molecular target: DLL3 endogenously expressed on NCI-H82 cells (UniProt Q9NYJ7)
Test: FACS on NCI-H82 cells; antibody 0.00128 nM

| Binder | MFI |
| --- | --- |
| B1 | 130 |
| B2 | 123 |

Molecular target: monkey DLL3 on CHO-K1-cyno DLL3 cells (cynomolgus monkey)
Test: FACS, CHO-K1-cyno DLL3 cells, 100 nM antibody

| Binder | MFI [MFI] |
| --- | --- |
| B2 | 29600 |

Molecular target: human DLL3 protein expressed on CHO-K1 recombinant cells (human DLL3 extracellular segment fused to EpCAM transmembrane and intracellular regions) (human) (UniProt Q9NYJ7)
Test: FACS, CHO-K1 hDLL3 cells, 0.16 nM antibody

| Binder | MFI [MFI] |
| --- | --- |
| B1 | 3190 |

Molecular target: mouse DLL3 on CHO-K1-mDLL3 cells (mouse) (UniProt O88516)
Test: FACS, CHO-K1-mDLL3 cells, 4 nM antibody

| Binder | MFI [MFI] |
| --- | --- |
| B1 | 557 |
| B2 | 458 |

From patent EP4786492A1
